According to paper PMC7048800:

Tests used:
[1] = biological target: HsNMT1ΔC2 (HsNMT1 deletion variant with truncation of the last two amino acids) (human) (UniProt P30419)
[2] = biological target: HsNMT1ΔC3 (HsNMT1 variant with truncation of the last three amino acids) (human) (UniProt P30419)
[3] = biological target: T1, Long-HsNMT1 (human N-myristoyltransferase 1, residues 99-496) (human) (UniProt P30419)
T1 sequence: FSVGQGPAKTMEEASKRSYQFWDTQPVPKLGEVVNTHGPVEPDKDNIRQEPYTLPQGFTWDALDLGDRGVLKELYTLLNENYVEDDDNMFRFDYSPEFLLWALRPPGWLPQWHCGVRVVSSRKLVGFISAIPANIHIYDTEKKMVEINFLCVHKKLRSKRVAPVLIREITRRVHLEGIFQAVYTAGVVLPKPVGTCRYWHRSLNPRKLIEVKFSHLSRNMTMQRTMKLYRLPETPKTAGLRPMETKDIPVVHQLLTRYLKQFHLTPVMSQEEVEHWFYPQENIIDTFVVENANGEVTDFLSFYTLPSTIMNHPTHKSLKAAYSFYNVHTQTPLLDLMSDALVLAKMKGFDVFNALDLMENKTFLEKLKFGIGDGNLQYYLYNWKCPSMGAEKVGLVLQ

Km for the peptide in the fluorescence-based coupled in vitro MYR assay with MyrCoA, 30 °C [1]: 629 µM
Km for the peptide in the fluorescence-based coupled in vitro MYR assay with MyrCoA, 30 °C [2]: 2140 µM
Km for the peptide in the fluorescence-based coupled in vitro MYR assay with MyrCoA, 30 °C [3]: 18 µM
Binder: GCSVSKKK [GlyCysSerValSerLysLysLys (SOS3) peptide]
